{
  "source": "paper PMC6100598",
  "about": "“Characterization of Small Molecules Inhibiting the Pro-Angiogenic Activity of the Zinc Finger Transcription Factor Vezf1” (Molecules : A Journal of Synthetic Chemistry and Natural …, 2018)",
  "key": {"[1]": {"biological_target": "T1, Vezf1 (recombinant His-Vezf1) (Mus musculus, UniProt Q5SXC4)", "T1 construct": "N-terminal His6 tag (pQE10), kept; E. coli XLBlue (MRF, T7); Ni-NTA; residue borders not given; native protein about 65 kDa, six C2H2 zinc fingers", "T1 sequence (Q5SXC4 1-518)": "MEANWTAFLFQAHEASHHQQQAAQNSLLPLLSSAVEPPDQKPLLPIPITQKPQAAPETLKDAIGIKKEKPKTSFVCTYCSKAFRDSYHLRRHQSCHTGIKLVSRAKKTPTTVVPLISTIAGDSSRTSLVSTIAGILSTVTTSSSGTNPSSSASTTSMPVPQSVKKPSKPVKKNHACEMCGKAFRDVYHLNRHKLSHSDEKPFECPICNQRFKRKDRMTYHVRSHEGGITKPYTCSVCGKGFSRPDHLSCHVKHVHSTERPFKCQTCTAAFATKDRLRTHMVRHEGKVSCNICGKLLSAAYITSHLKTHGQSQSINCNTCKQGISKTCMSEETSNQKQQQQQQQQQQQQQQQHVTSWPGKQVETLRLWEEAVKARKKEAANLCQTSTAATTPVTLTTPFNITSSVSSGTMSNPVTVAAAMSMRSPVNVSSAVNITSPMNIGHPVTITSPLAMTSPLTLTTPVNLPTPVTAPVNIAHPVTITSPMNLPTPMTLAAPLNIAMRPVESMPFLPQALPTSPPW", "assay": "EMSA, inhibition of Vezf1 binding to […]-labelled DNA", "details": "1 μM or 640 nM (Figure 5C) Vezf1, 25 nM 32P-DNA (HS4-FPIII site), 10 min pre-incubation, 10 mM MgCl2, Hepes 7.5, room temperature; also called effective blocking concentration"}, "[2]": {"biological_target": "T1, Vezf1 (recombinant His-Vezf1)", "assay": "EMSA, single dose", "details": "640 nM Vezf1, 25 nM 32P-DNA, 10 min pre-incubation; residual DNA binding, not per cent inhibition; value without compound not given"}, "[3]": {"biological_target": "T2, Vezf1 (His-Vezf1) (UniProt Q5SXC4)", "T2 sequence": "T1 sequence (Q5SXC4 1-518)", "assay": "EMSA", "details": "20 mM Hepes pH 7.5, 10 mM MgCl2, 50 mM NaCl, 1 mM EDTA, 5 ng/uL poly dA.dT, 10 min at room temperature, 5% acrylamide gel in 0.5x TBE"}},
  "note": "Values joined by “and” are separate entries in the source; they are usually repeats but may differ in a detail not shown here. Equal entries are not always repeated.",
  "data": [
    {"molecule": "O=C(O)c1ccccc1NC(c1ccccc1)c1ccc2cccnc2c1O", "note": "(centres unmarked) [compound 1, NSC1012]", "values": [
      {"measurement": "Activity Concentration", "setting": "[1]", "value": "~ 500 μM"}
    ]},
    {"molecule": "Cc1c(S(=O)(=O)O)ccc(N=Nc2c(O)c(C(=O)O)cc3ccccc23)c1Cl", "note": "[compound 2, NSC16087]", "values": [
      {"measurement": "% DNA Bound in EMSA (500 μM)", "setting": "[2]", "value": 22.56, "unit": "%"}
    ]},
    {"molecule": "NC(=O)c1nnn(Cc2cc(Cl)c(C(=O)c3ccc(Cl)cc3)c(Cl)c2)c1N", "note": "[compound 3, NSC609974]", "values": [
      {"measurement": "% DNA Bound in EMSA (500 μM)", "setting": "[2]", "value": 38.45, "unit": "%"}
    ]},
    {"molecule": "AGGCGCGCCCCGGTCCGGCGCTCCCCCCGCATCCCCGAGCCGGGGCGCGCCT (double strand) [HS4-FPIII Vezf1 site duplex]", "values": [
      {"measurement": "binding signal", "setting": "[3]; 500 uM NSC1012, 640 nM Vezf1", "value": 7.38, "unit": "% DNA bound"},
      {"measurement": "binding signal", "setting": "[3]; 500 uM T4 (503-1-83), 640 nM Vezf1, T4 effective at 20 uM (IC50)", "value": 5.94, "unit": "% DNA bound"},
      {"measurement": "binding signal", "setting": "[3]; 500 uM T6 (503-1-71 in text; 501-1-71 in Fig 5B legend), 640 nM Vezf1", "value": 5.92, "unit": "% DNA bound"},
      {"measurement": "binding signal", "setting": "[3]", "value": "22.6 % DNA bound and 38.5 % DNA bound"},
      {"measurement": "Kd", "setting": "[3]; no inhibitor, 25 nM DNA, 50-1000 nM protein", "value": 640, "unit": "nM"}
    ]}
  ]
}
